B1: mAb11002 (antibody, V domains shown)
VH: EVQLVESGGGLVQPGGSLRLSCAASGFTVSSNYMSWVRQAPGKGLEWVSVIYSGGSTFYADSVKGRFTISRHNSKNTLYLQMNSLRAEDTAVYYCAREGYGMDVWGQGTTVTVSS
VL: not shown
B2: mAb10998 (antibody, V domains shown)
VH: EVQLVESGGGLVHPGGSLRLSCAASGLTVSSNYMSWVRQAPGKGLEWVSVIYSGGSTYYADSVKGRFTISRHNSKNTLFLQMNSLRAEDTAVYYCARDRPITGTTLDVWGQGTTVTVSS
VL: DIQMTQSPSSLFASVGDRVTITCRASQSISSYLNWYQQKPGKAPKLLIYAASSLQSGVPSRFSGSGSGTDFTLTISSLQPEDFAFYYCQQTYSTPPITFGQGTRLEIK
B3: mAb10978 (antibody)
heavy chain: QVQLVESGGGVVQPGRSLRLSCAASGFTFSSYAMHWVRQAPGKGLEWVAVISYDGSNKYYADSVKGRFTISRDNSKNTLYLQMNSLRAEDTAVYYCARDGRTITMVRGVIDDAFDIWGQGTMVTVSSASTKGPSVFPLAPCSRSTSESTAALGCLVKDYFPEPVTVSWNSGALTSGVHTFPAVLQSSGLYSLSSVVTVPSSSLGTKTYTCNVDHKPSNTKVDKRVESKYGPPCPPCPAPGGGGPSVFLFPPKPKDTLMISRTPEVTCVVVDVSQEDPEVQFNWYVDGVEVHNAKTKPREEQFNSTYRVVSVLTVLHQDWLNGKEYKCKVSNKGLPSSIEKTISKAKGQPREPQVYTLPPSQEEMTKNQVSLTCLVKGFYPSDIAVEWESNGQPENNYKTTPPVLDSDGSFFLYSRLTVDKSRWQEGNVFSCSVMHEALHNHYTQKSLSLSLGK
light chain: not shown
B4: mAb11006 (antibody, V domains shown)
VH: EVQLVESGGGLVQPGGSLRLSCAASGFIVSRNYMSWVRQAPGKGLEWVSVIYSGGSTFYADSVKGRFTISRHNSKNTLYLQMNSLKAEDTAVYYCARELRGYFDYWGQGTLVTVSS
VL: DIQLTQSPSFLSASVGDRVTITCWASQGISSYLAWYQQKPGKAPKLLIYAASTLQSGVPSRFSGSGSGTEFTLTISSLQPEDFATYYCQLLNSYPYTFGQGTKLEIK
B5: mAb11008 (antibody, V domains shown)
VH: EVQLVESGGGLVQPGGSLRLSCAASGFTVSSNYMTWVRQAPGKGLEWVSVIYSGGSTFYADSVKGRFTISRHNSENTLYLQMNSLRAEDTAVYYCARDLAAAGTDYWGQGALVTVSS
VL: DIQLTQSPSFLSASVGDRVTITCWASQGISSYLAWYQQKPGKAPKLLIYAASTLQSGVPSRFSGSGSGTEFTLTISSLQPDDFATYYCQHLNSYLYTFGQGTKLEIK
B6: mAb10956 (antibody, V domains shown)
VH: EVQLVESGGGLVQPGGSLRLSCAASGLTVSSNYMSWVRQAPGKGLEWVSVIYSGGSTFYADSVKGRFTISRDNSKNTLYLQMNSLRAEDTAVYYCARDLIKYGMDVWGQGTTVTVSS
VL: not shown
B7: mAb10957 (antibody, V domains shown)
VH: EVQLVESGGGLVQPGGSLRLSCAASGVTVSSNYMSWVRQAPGKGLEWVSVIYSGGSTFYADSVKGRFTISRDNSKNTLFLQMNSLRIEDTAVYYCARDLGPYGMDVWGQGTTVTVSS
VL: DIQLTQSPSFLSASVGDRVTITCRASQGISSYLAWYQQKPGKAPKLLIYAASTLQSGVPSRFSGSGSGTQFILTISSLQPEDFATYYCQQLNSYPGFTFGPGTKVDIKR
B8: mAb11010 (antibody, V domains shown)
VH: QVQLVESGGGVVQPGRSLRLSCAASGFTFSSYGMHWVRQAPGKGLEWVAVISYDGSYKYYADSVKGRFTISRDNSKNTLYLQMNSLRAEDTAVYYCAIDGGTVTTIFDYWGQGTLVTVSS
VL: not shown
B9: mAb11004 (antibody, V domains shown)
VH: QVQLVESGGGVVQPGRSLRLSCVASGFTFSIYGMDWVRQAPGKGLEWVAVISYDGSNKYYADSVKGRFTISRDNSKNTLYLQMNSLRPEDTAVYYCAKDREAAADAFDIWGQGTMVTVSS
VL: DIQMTQSPSSVSASVGDRVTITCRASQGISSWLAWYQQKPGKAPKLLIYAASSLHSGVPSRFSGSGSGTDFTLTISSLQPEDFATYYCQQANSFRLTFGGGTKVEIK

What was measured:
[1] = biological target: SARS-COV-2 spike protein receptor binding domain (amino acids Arg319 to Phe541) expressed with the F (SARS-CoV-2)
SARS-COV-2 RBD-hFc = SARS-COV-2 RBD-hFc (SARS-CoV-2)
[2] = biological target: Bt-SARS-CoV-2 Spike Protein (RBD) (R319-F541).mFc (SARS-CoV-2); assay: Luminex beads, supernatant
[3] = biological target: SARS-CoV-2 Spike Protein (RBD) (R319-F541).mFc (SARS-CoV-2); assay: Luminex beads, supernatant
[4] = biological target: SARS-CoV-2 Spike Protein (RBD) (R319-F541).hFc (SARS-CoV-2); assay: Luminex beads, supernatant

Binder | Kd [1] | t½ [1] | koff [1] | kon [1] | other results
B1 | 16.7 nM | 0.0433 h |  |  | 
B2 | 1.58 nM | 0.37 h | 0.000521 s⁻¹ | 330000 M⁻¹ s⁻¹ | 
B3 |  |  |  |  | IC50 (read off the curve) (SARS-COV-2 RBD-hFc): ~0.1 nM
B4 | ≤ 0.0532 nM | ≥ 19.2 h |  |  | 
B5 | 0.715 nM | 1.67 h | 0.000115 s⁻¹ | 161000 M⁻¹ s⁻¹ | 
B6 |  |  |  |  | MFI [2]: 12900 MFI; MFI [3]: 28300 MFI; MFI [4]: 30200 MFI
B7 |  |  |  |  | MFI [2]: 10600 MFI; MFI [3]: 18700 MFI; MFI [4]: 22600 MFI
B8 | ≤ 0.0236 nM | ≥ 19.2 h |  |  | 
B9 | 0.191 nM | 2.9 h | 6.63e-05 s⁻¹ | 346000 M⁻¹ s⁻¹ | 

Source: patent US20260234738A1 (Regeneron, published 2026)
